The target of one test is H2A/H2B dimer (Xenopus, UniProt P06897 2-123; P02281 1-126).
A further test concerns the target H3/H4 (Xenopus, UniProt P84233 21-136; P62799 17-103).

The values that follow come from paper PMC5738438 (2017).

The Kd is the constant that tells how readily two partners part at equilibrium. Read a low Kd as tighter binding.

Consider DYSWAEEEDE [Npm tail peptide (residues 122–131)], for which binding with H2A/H2B dimer was characterised by a dissociation constant (Kd) of 9360 nM.

B1: Npm tail domain (residues 119–195) (domain or fragment)
chain: MEEDYSWAEEEDEGEEEEEEEEDPESPPKAVKRPAATKKAGQAKKKKLDKEDESSEEDSPTKKGKGAGRGRKPAAKK
Consider B1, for which the Kd with H3/H4 amounted to 1110 nM; with H2A/H2B dimer it was 171 nM.
